Assay results taken from paper PMC10825162 (Nature Communications, 2024).

Biological target: SARS-CoV-2 BA.1 RBD protein (SARS-CoV-2 Omicron BA.1, strain)
Assay: SPR
Details: both partners purified

B1: BA7208 (antibody, V domains shown)
VH: EVQLVQSGAEVKKPGESLKISCKGSGYSFTSYYWIGWVRQMPGKGLEWMGIVYPDDSDTRYSPSFQGQVTISADKSISTAYLQWSSLKASDTAMYYCVRHPGGGDWYFDLWGRGTLVTVSS
VL: DIQMTQSPSTLSASVGDRVTITCRASQSISSWLAWYQQKPGKAPKLLIYKASSLESGVPSRFSGSGSGTEFTLTITSLQPDDFATYYCQQYDSFSWTFGQGTKLEIK
Kd: 1.81 nM
